{"source": "patent US9012420B2", "about": "“Aptamer for chymase, and use thereof” (Ribomic Inc., priority 2009, dated 2015)", "key": {"[1]": {"target": "T1, chymase (recombinant) (UniProt P23946 P23946:22-247)", "T1 sequence": "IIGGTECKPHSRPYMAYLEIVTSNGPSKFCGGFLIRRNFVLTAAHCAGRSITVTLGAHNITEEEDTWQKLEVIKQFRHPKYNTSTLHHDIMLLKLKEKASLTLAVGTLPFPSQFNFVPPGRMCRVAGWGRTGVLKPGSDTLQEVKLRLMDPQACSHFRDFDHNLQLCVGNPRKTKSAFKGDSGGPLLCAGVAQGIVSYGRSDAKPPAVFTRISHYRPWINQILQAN", "assay": "inhibition; SPR not determined", "conditions": "tags: SIGMA, expressed in yeast", "protocol": "(§1) Here, Suc is a protecting succinyl group, and MCA is a 4-methylcoumaryl-7-amide group; upon cleavage of the C-terminal side of phenylalanine, AMC (7-amino-4-methyl-coumarine) is released. By detecting the fluorescence of this AMC, the enzyme activity of chymase can be determined. The assay was performed using a 96-well plate (F16 Black Maxisorp Fluoronunc, manufactured by Nunc), with a reaction mixture volume of 100 μL, in solution C as a buffer solution. First, each nucleic acid was serially diluted to 0.0027-2 μM concentrations in solution C to obtain 50 μL solutions. After 10 μL of the 1 mM substrate prepared in solution C was added thereto, the plate was set to the microplate reader SpectraMax190 (manufactured by Molecular Devices Corporation), and incubated at 37° C. for 5 minutes. Separately, 0.05 μg (or 0.005 μg) of chymase (recombinant, manufactured by SIGMA) was diluted in solution C to obtain a 40 μL chymase solution, and incubated at 37° C. for 5 minutes. […] The plate containing the reaction mixture was set to the microplate reader SpectraMax190 (manufactured by Molecular Devices Corporation), and examined for time-dependent changes in the fluorescence intensity at 37° C. for 5 minutes (or 30 minutes) (excitation wavelength 380 nm, detection wavelength 460 nm). A linear approximation of the increase in the fluorescence of the AMC released from the substrate by chymase activity was generated, and its slope was taken as the initial velocity ($Vmax$). For control, samples were treated and analyzed in the same manner in two cases: use of a 30N or 40N (a nucleotide of 30 or 40 consecutive bases represented by N; N is A, G, C or T) nucleic acid pool (negative control), and use of chymostatin, a known chymotrypsin-like serine protease inhibitor (positive control). Taking the initial reaction velocity without the nucleic acid and inhibitor (V_0) as a 100% enzyme activity, the inhibitory rate of each test substance was calculated using the following equation: […]\nThe chymase inhibitory activity was measured in the same manner as in Example 3."}, "[2]": {"target": "T1, chymase (recombinant)", "assay": "inhibition; SPR ++", "conditions": "tags: SIGMA, expressed in yeast", "protocol": "Here, Suc is a protecting succinyl group, and MCA is a 4-methylcoumaryl-7-amide group; upon cleavage of the C-terminal side of phenylalanine, AMC (7-amino-4-methyl-coumarine) is released. By detecting the fluorescence of this AMC, the enzyme activity of chymase can be determined. The assay was performed using a 96-well plate (F16 Black Maxisorp Fluoronunc, manufactured by Nunc), with a reaction mixture volume of 100 μL, in solution C as a buffer solution. First, each nucleic acid was serially diluted to 0.0027-2 μM concentrations in solution C to obtain 50 μL solutions. After 10 μL of the 1 mM substrate prepared in solution C was added thereto, the plate was set to the microplate reader SpectraMax190 (manufactured by Molecular Devices Corporation), and incubated at 37° C. for 5 minutes. Separately, 0.05 μg (or 0.005 μg) of chymase (recombinant, manufactured by SIGMA) was diluted in solution C to obtain a 40 μL chymase solution, and incubated at 37° C. for 5 minutes. The chymase solution was added to the mixture of the nucleic acid and substrate to initiate an enzyme reaction. The final chymase concentration in the reaction mixture was 16.7 nM (or 1.67 nM), the final substrate concentration being 100 μM. The plate containing the reaction mixture was set to the microplate reader SpectraMax190 (manufactured by Molecular Devices Corporation), and examined for time-dependent changes in the fluorescence intensity at 37° C. for 5 minutes (or 30 minutes) (excitation wavelength 380 nm, detection wavelength 460 nm). A linear approximation of the increase in the fluorescence of the AMC released from the substrate by chymase activity was generated, and its slope was taken as the initial velocity […]. For control, samples were treated and analyzed in the same manner in two cases: use of a 30N or 40N (a nucleotide of 30 or 40 consecutive bases represented by N; N is A, G, C or T) nucleic acid pool (negative control), and use of chymostatin, a known chymotrypsin-like serine protease inhibitor (positive control). Taking the initial reaction velocity without the nucleic acid and inhibitor (V_0) as a 100% enzyme activity, the inhibitory rate of each test substance was calculated using the following equation: […]"}, "[3]": {"target": "T2, chymase (native, human skin mast cell) (Homo sapiens, UniProt P23946 P23946:22-247)", "T2 sequence": "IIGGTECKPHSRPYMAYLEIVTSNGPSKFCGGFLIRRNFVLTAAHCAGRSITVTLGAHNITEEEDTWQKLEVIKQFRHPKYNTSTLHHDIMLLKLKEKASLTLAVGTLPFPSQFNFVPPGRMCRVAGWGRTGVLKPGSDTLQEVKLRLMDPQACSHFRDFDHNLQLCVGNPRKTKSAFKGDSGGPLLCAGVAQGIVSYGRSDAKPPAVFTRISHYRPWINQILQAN", "assay": "inhibition; angiotensin I substrate; recombinant 0.041 uM", "conditions": "tags: Calbiochem", "protocol": "(§2) The total volume of solution for an enzyme reaction in the assay was set to 50 μL, and the reaction was performed in solution C buffer. First, 0.3-0.75 ng of chymase (recombinant, (manufactured by SIGMA) or native (manufactured by Calbiochem)) was diluted with solution C to give 5 μL thereof. Here, the recombinant is chymase expressed by yeast, and the native is chymase purified from human skin mast cell. The nucleic acid was serially diluted with solution C at a concentration of 0.0027-2 μM to give 25 μL thereof. The chymase solution (5 μL) and the nucleic acid solution (25 μL) were mixed, and the mixture was incubated at 37° C. for 5 min. […] The whole mixture was centrifuged at 4° C., 14000 rpm for 10 min, and the supernatant (30 μL) was used for the next fluorescence induction reaction.\n(§3) The above-mentioned supernatant (30 μL) was added to a 96 well plate (black, manufactured by Costar), a solution (15 μL) of 2% o-phthalaldehyde (manufactured by SIGMA) in methanol and 0.3M NaOH solution (170 μL) were added to each well, and the mixture was incubated at room temperature for 10 min. […] The plate was set on a microplate reader SpectraMax190 (manufactured by Molecular device) and the fluorescence intensity was measured at an excitation wavelength of 355 nm and a fluorescence wavelength of 460 nm."}, "[4]": {"target": "T2, chymase (native, human skin mast cell)", "assay": "inhibition; angiotensin I substrate, solution C, 37 C; recombinant 0.003 uM", "conditions": "tags: Calbiochem", "protocol": "as §2, §3"}, "[5]": {"target": "T1, chymase (recombinant)", "assay": "inhibition; Suc-AAPF-MCA, solution C, 37 C; SPR ++", "conditions": "tags: SIGMA, expressed in yeast", "protocol": "as §1, with “minutes.” for “minutes. Separately, 0.05 μg (or 0.005 μg) of chymase (recombinant, manufactured by SIGMA) was diluted in solution C to obtain a 40 μL chymase solution, and incubated at 37° C. for 5 minutes.”, “($Vmax$).” for “($Vmax$). For control, samples were treated and analyzed in the same manner in two cases: use of a 30N or 40N (a nucleotide of 30 or 40 consecutive bases represented by N; N is A, G, C or T) nucleic acid pool (negative control), and use of chymostatin, a known chymotrypsin-like serine protease inhibitor (positive control). Taking the initial reaction velocity without the nucleic acid and inhibitor (V_0) as a 100% enzyme activity, the inhibitory rate of each test substance was calculated using the following equation:”"}, "[6]": {"target": "T3, chymase (Homo sapiens, UniProt P23946 P23946:22-247)", "T3 sequence": "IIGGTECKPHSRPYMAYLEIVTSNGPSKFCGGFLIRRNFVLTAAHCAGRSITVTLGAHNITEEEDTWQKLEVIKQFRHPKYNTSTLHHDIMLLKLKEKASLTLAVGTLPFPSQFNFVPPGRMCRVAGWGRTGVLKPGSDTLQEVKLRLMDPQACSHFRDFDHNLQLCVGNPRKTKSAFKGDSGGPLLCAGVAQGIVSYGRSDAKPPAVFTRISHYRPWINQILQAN", "assay": "inhibition; angiotensin I; recombinant 0.207", "conditions": "tags: human skin mast cell, Calbiochem", "protocol": "as §2, §3"}, "[7]": {"target": "T3, chymase", "assay": "inhibition; angiotensin I; recombinant 0.397", "conditions": "tags: human skin mast cell, Calbiochem", "protocol": "as §2, §3"}, "[8]": {"target": "T3, chymase", "assay": "inhibition; angiotensin I; recombinant 0.022", "conditions": "tags: human skin mast cell, Calbiochem", "protocol": "as §2, §3"}, "[9]": {"target": "T3, chymase", "assay": "inhibition; angiotensin I; recombinant 0.446", "conditions": "tags: human skin mast cell, Calbiochem", "protocol": "as §2, §3"}, "[10]": {"target": "T3, chymase", "assay": "SPR; stronger than 40N; solution A", "conditions": "tags: human skin mast cell, Calbiochem", "protocol": "The binding activities against chymase of the nucleic acids shown by SEQ ID NO: 4-20 and 22-34 were determined by the surface plasmon resonance method using Biacore T100 (manufactured by GE Healthcare). The sensor chip used was the SA chip, which had streptavidin immobilized thereon. Bound thereto was about 1500 RU of a 16-nucleotide Poly dT with biotin bound to the 5' end thereof. […] 20 μL of chymase for analyte, prepared at 0.2 μM, was injected. Solution A was used as a running buffer."}, "[11]": {"target": "T3, chymase", "assay": "inhibition; angiotensin I; recombinant 0.108", "conditions": "tags: human skin mast cell, Calbiochem", "protocol": "as §2, §3"}}}
{"binder": "AAAGGGUUAGAUAGAGUUAAAAACCC (ssRNA, PEG-A(M)A(M)A(M)G(M)G(M)G(M)U(F)U(F)AG(M)A(M)U(F)A(M)GAG(M)U(F)U(F)A(M)A(M)A(M)A(M)A(M)C(F)C(F)C(F)-idT (M=2'-OMe, F=2'-F))", "note": "[SEQ 69]", "values": [{"measurement": "IC50", "setting": "[1]", "result": 91, "unit": "nM"}]}
{"binder": "SEQ 13 (ssRNA, 2'-F pyrimidines) RNA: GGGACGGUAGGAAUUCCGCAACCAUCCCGUAACUAUGGUUAGAUAGAGUUAAAAACCAUAGAAGAGCGGCCGC", "values": [{"measurement": "IC50", "setting": "[2]", "result": 58, "unit": "nM"}, {"measurement": "IC50", "setting": "[3]", "result": 74, "unit": "nM"}]}
{"binder": "SEQ 4 (ssRNA, 2'-F pyrimidines) RNA: GGGACGGUAGGAAUUCGUCCAUUCUACAGAUAGAGAUAAAGUAGAAUUUAACAAAACAUAGAAGAGCGGCCGC", "values": [{"measurement": "IC50", "setting": "[4]", "result": 31, "unit": "nM"}, {"measurement": "IC50", "setting": "[5]", "result": 49, "unit": "nM"}]}
{"binder": "GGGUUAGAUAGAGUUAAAAACCC (ssRNA, 2'-F U and C; 5' and 3' idT)", "note": "[56(1)]", "values": [{"measurement": "IC50", "setting": "[6]", "result": 404, "unit": "nM"}]}
{"binder": "UAACUAUGGUUAGAUAGAGUUAAAAACCAUAGAAGA (ssRNA, 2'-F U and C)", "note": "[SEQ 54]", "values": [{"measurement": "IC50", "setting": "[7]", "result": 614, "unit": "nM"}]}
{"binder": "GGGTTAGAUAGAGTUAAAAACCC (mixed, B-idT-G(M)G(M)G(M)ttAG(M)aU(F)A(M)GAG(M)tU(F)A(M)A(M)A(M)A(M)A(M)ccc-idT (lower case DNA, B=biotin))", "note": "[72(8)]", "values": [{"measurement": "IC50", "setting": "[1]; label: biotin", "result": 18, "unit": "nM"}]}
{"binder": "SEQ 14 (ssRNA, 2'-F U and C) RNA: GGGACGGUAGGAAUUCUCGUUCCUGACAGCAUUUGAGAUAGAUUUAAACAAACGCACAUAGAAGAGCGGCCGC", "values": [{"measurement": "IC50", "setting": "[8]", "result": 63, "unit": "nM"}]}
{"binder": "GGGUAACUAUGGUUAGAUAGAGUUAAAAACCAUAGAAGACCC (ssRNA, 2'-F U and C)", "note": "[SEQ 53]", "values": [{"measurement": "IC50", "setting": "[9]", "result": 764, "unit": "nM"}]}
{"binder": "SEQ 10 (ssRNA, 2'-F U and C) RNA: GGGACGGUAGGAAUUCCGCCGCCUAAAAAACGACGAUAUUACAGAAACGUCAAAUACAUAGAAGAGCGGCCGC", "values": [{"measurement": "binding result", "setting": "[10]", "result": "binds"}]}
{"binder": "GGGUUAGAUAGAGUUAAAAACCC (ssRNA, 2'-F U and C; PS 5-6)", "note": "[56(18)]", "values": [{"measurement": "IC50", "setting": "[11]", "result": 174, "unit": "nM"}]}
